Assay [1] addresses Sm-like protein from Sulfolobus acidocaldarius (SacSm) (Sulfolobus acidocaldarius). Description: dynamic light scattering; particle size under native conditions, Zetasizer Nano ZSP, 25 °C, detection angle 173°.
Assay [2] addresses hybrid chaperone protein ADGroEL–SacSm (Escherichia coli | Sulfolobus acidocaldarius). The assay is described as above.

Broadly, the stoichiometry N is a count of units in the complex or per binding partner.

In turn, “Sm-like protein from Sulfolobus acidocaldarius (SacSm) (natural protein)” returned a stoichiometry N in assay [1] of 7.

Take hybrid chaperone protein ADGroEL–SacSm: the stoichiometry N in assay [2] turned out to be 7.

For the origin of these results see publication PMC10488932.
